# Source: paper PMC3179519
# Target: Salmonella SJW1660 flagellin capable of forming L-type straight filaments (Salmonella (S. typhimurium)) (UniProt P06179)
# Assay: co-sedimentation; monomers of SJW1660 flagellin and FliC(XynA) mixed at 1:1 to 1:5 (w/w) in 20 mM Tris-HCl, 150 mM NaCl (pH 7.8), polymerized with ammonium sulfate (0.4-0.6 M), 2 days at room temperature; centrifuged, pellet dissolved in buffer without AS, SDS-PAGE with densitometry; filaments also seen by dark-field microscopy and AFM
substance,measurement,value
FliC(XynA) fusion protein (flagellin-xylanase A chimera) (from UniProt P18429 29-213),"band intensity of FliC(XynA) in the copolymer pellet, 1:1 mixing ratio (FliC band 49.3)",49.6
same,"band intensity of FliC(XynA) in the copolymer pellet, 1:2 mixing ratio (FliC band 50.7)",34.2
